Among the data in PMC13232553 are stoichiometry N values, retold here.

The test has as its target mPiezo1-ALFA_(2420)-HRV3C-GFP (mouse (printed only as mPiezo1)) (UniProt E2JF22). Briefly: SEC; Superose-6 (10/300 GL) in 150 mM NaCl, 20 mM tris pH 8, 0.025% C12E10, 4°C. The note with it: remark: other sources report otherwise.

Take “mPiezo1-ALFA_(2420)-HRV3C-GFP, E2JF22 1-2547”: the stoichiometry N came to 3.
